# Laboratory results reported in patent publication US20210079037A1 (TECHNISCHE UNIVERSIT T M NCHEN, published 2021).
# B1: ProtL-ABD fusion protein (other)
# chain: MKEEVTIKVNLIFADGKTQTAEFKGTFEEATAKAYAYADLLAKENGEYTADLEDGGNTINIKFAGGAVDANSLAEAKVLANRELDKYGVSDYYKNLINNAKTVEGVKALIDEILAALP
# notes: also called protein L-ABD fusion protein; unmodified ProtL-ABD
# What was measured:
# [1] = target: T1, recombinant human serum albumin (HSA) produced in rice (Sigma-Aldrich) (human, UniProt P02768 25-609); test: ELISA, capture of the ABD fusion on HSA-coated plate
# T1 construct: also called recombinant HSA
# Procedure: (§1) ELISA was performed at ambient temperature in a 96-well Maxisorb microtiter plate (Nunc, Langenselbold, Germany).
# (§2) Then, the wells were blocked with […] Roti-Block (Carl Roth, Karlsruhe, Germany) diluted 1:10 in ddH₂O for 1 h and washed three times with PBS containing 0.1% v/v Tween 20 (PBS/T). After that, the purified ProtL^Caf-ABD fusion protein from Example 11 was applied in a dilution series in PBS/T and incubated for 1 h to effect complex formation between the ABD moiety and the pre-adsorbed HSA. The wells were then washed three times with PBS/T and incubated with 50 μl of a 1:1000 dilution in PBS/T of the aforementioned mouse anti-6×His Ig-AP conjugate.
# [2] = target: T2, mouse anti-6×His antibody alkaline phosphatase (AP) conjugate (Arigo Biolaboratories); test: ELISA: ProtL-ABD in a dilution series captured on coated HSA, mouse anti-6xHis Ig-AP conjugate (1:1000) applied, kept in daylight, AP activity as dA/dt [left graph]
# T2 construct: also called mouse anti-6×His Ig-AP conjugate; Ig-AP conjugate
# Procedure: as §1, §2
# [3] = target: T2, mouse anti-6×His antibody alkaline …; test: ELISA: ProtL-ABD in a dilution series captured on coated HSA, mouse anti-6xHis Ig-AP conjugate (1:1000) applied, UV light of 365 nm for 5 min before the washes, AP activity as dA/dt [left graph]
# Procedure: as §1, §2
# T1 sequence (P02768 25-609 limits assumed): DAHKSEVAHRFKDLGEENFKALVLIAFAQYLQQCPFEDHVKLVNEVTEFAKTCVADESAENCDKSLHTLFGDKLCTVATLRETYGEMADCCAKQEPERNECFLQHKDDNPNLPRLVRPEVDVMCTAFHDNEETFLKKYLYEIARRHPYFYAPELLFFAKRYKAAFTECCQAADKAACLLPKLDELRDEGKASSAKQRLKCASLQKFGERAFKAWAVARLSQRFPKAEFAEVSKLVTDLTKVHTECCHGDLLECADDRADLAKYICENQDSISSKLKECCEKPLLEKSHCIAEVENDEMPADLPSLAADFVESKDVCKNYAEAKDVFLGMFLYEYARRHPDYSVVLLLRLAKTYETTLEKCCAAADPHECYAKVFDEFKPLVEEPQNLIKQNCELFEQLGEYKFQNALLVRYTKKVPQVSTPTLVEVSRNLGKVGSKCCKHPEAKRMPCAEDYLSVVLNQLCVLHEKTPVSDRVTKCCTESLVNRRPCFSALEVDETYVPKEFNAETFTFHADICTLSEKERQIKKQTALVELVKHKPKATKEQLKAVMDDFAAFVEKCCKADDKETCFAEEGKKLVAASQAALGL
binder,measurement,setting,value
B1,binding result,[1],binds
same,EC50 (read off the curve),[2],~40 nM
same,EC50 (read off the curve),[3],~40 nM
